Data from US20160222079A1 (GENOR BIOPHARMA, published 2016).

T1: GLP-1 receptor (GLP-1R) on the surface of mouse beta pancreatic tumor cells β-TC-6 (mouse, UniProt O35659 22-463)
T1 construct: whole, on cells; Endogenous receptor of the mouse cell line
T1 sequence (looked up): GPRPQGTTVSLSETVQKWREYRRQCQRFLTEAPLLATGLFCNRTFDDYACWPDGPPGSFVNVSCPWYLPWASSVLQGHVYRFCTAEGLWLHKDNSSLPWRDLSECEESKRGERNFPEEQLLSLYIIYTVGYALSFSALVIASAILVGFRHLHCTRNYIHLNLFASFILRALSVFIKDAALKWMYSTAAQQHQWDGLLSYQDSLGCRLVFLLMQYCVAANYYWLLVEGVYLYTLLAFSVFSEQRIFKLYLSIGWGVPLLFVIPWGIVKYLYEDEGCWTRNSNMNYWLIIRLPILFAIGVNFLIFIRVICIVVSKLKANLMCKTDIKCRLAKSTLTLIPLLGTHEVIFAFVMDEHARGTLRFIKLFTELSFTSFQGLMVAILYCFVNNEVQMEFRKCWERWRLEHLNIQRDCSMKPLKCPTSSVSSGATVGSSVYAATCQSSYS

B1: GLP-1-Fc-3 fusion protein (Fc fusion)
chain: HGEGTFTSDVSSYLEEQAAKEFIAWLVKGGGGGGGSGGGGSGGGGSVECPPCPAPPVAGPSVFLFPPKPKDTLMISRTPEVTCVVVDVSHEDPEVQFNWYVDGVEVHNAKTKPREEQFNSTFRVVSVLTVVHQDWLNGKEYKCKVSNKGLPAPIEKTISKTKGQPREPQVYTLPPSREEMTKNQVSLTCLVKGFYPSDIAVEWESNGQPENNYKTTPPMLDSDGSFFLYSKLTVDKSRWQQGNVFSCSVMHEALHNHYTQKSLSLSPG
notes: also called GLP-1-Fc (IgG2)
B2: GLP-1-Fc-1 fusion protein (Fc fusion)
chain: HGEGTFTSDVSSYLEEQAAKEFIAWLVKGGGGGGGSGGGGSGGGGSVECPPCPAPPVAGPSVFLFPPKPKDTLMISRTPEVTCVVVDVSHEDPEVQFNWYVDGVEVHNAKTKPREEQFNSTFRVVSVLTVVHQDWLNGKEYKCAVSNKGLPAPIEKTISKTKGQPREPQVYTLPPSREEMTKNQVSLTCLVKGFYPSDIAVEWESNGQPENNYKTTPPMLDSDGSFFLYSKLTVDKSRWQQGNVFSCSVMHEALHNHYTQKSLSLSPGK
notes: also called GLP-1-Fc (IgG2)
B3: GLP-1-Fc-2 fusion protein (Fc fusion)
chain: HGEGTFTSDVSSYLEEQAAKEFIAWLVKGGGGGGGSGGGGSGGGGSERKCCVECPPCPAPPVAGPSVFLFPPKPKDTLMISRTPEVTCVVVDVSHEDPEVQFNWYVDGVEVHNAKTKPREEQFNSTFRVVSVLTVVHQDWLNGKEYKCKVSNKGLPAPIEKTISKTKGQPREPQVYTLPPSREEMTKNQVSLTCLVKGFYPSDIAVEWESNGQPENNYKTTPPMLDSDGSFFLYSKLTVDKSRWQQGNVFSCSVMHEALHNHYTQKSLSLSPG
notes: also called GLP-1-Fc (IgG2)

What follows are binders tested against T1, GLP-1 receptor (GLP-1R) on the surface … (assay: cell ELISA on fixed β-TC-6 cells, anti-human IgG-HRP detection).

Binding result, binds:
B1, B2, B3
